Source: PMC9547787

What was measured:
SUV39H2 = SUV39H2 (UniProt Q9H5I1); assay: proximity ligation assay (PLA); details: MO3.13 cells; n: EV = 14; H3.1WT = 36; H3.1K27M = 67; H3.3WT = 60; H3.3K27M = 62; parent: est. 1.2; read off a plot
BAZ2A = assay: BioID (streptavidin pulldown, LC-MS/MS); details: Flp-In T-Rex HEK293 cells; parent: est. 220; read off a plot
MBD4 = assay: BioID (streptavidin pulldown, LC-MS/MS); details: Flp-In T-Rex HEK293 cells; parent: est. 14; read off a plot
MECP2 = assay: BioID (streptavidin pulldown, LC-MS/MS); details: Flp-In T-Rex HEK293 cells; parent: est. 17; read off a plot
MBD3 = assay: BioID (streptavidin pulldown, LC-MS/MS); details: Flp-In T-Rex HEK293 cells; parent: est. 41; read off a plot

Sequence of UniProt Q9H5I1 (Q9H5I1 whole entry): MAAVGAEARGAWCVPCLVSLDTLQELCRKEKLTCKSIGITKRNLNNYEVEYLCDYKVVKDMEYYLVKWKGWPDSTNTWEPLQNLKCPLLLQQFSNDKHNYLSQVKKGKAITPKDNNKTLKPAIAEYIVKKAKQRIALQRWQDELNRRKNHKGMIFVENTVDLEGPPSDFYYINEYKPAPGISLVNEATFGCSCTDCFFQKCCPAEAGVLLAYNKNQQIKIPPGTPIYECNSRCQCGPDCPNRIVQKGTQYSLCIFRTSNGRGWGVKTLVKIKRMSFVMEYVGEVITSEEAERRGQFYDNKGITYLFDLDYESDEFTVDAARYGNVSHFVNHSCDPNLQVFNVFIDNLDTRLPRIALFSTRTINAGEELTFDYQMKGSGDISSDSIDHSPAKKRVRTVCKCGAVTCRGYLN

Row | response (relative foci (relative to H3.3WT)) (SUV39H2) | response (peptide count) (BAZ2A) | response (peptide count) (MBD4) | response (peptide count) (MECP2) | response (peptide count) (MBD3) | Substance
1 | 0.54 | – | – | – | – | H3.1WT-FLAG/HA (from UniProt P68431) K27M
2 | – | 83 | 13 | 4.1 | 23 | H3.3WT (FLAG-BirA* fusion, BioID bait) (from UniProt P84243) G34R
